# B1: HPV 16 R001 (antibody, V domains shown)
# VH: QSVKESEGRLVTPGTPLTLTCTASGFTMSRYHMTWVRQAPGKGLEWIGIIYARNSDTYYANWAKGRFTISKTSTTVDLKITSPTIEDTATYFCARVDSDSSGAFDRLDLWGQGTLVTVSS
# VL: DPMLTQTAASVEVAVGGTVTIKCQASQSIGGYLSWYQQKPGQRPKLLIYRASTLASGVPSRFKGSGSGTEYTLTFSGVECADAAAYYCQQGYTSSDINNAFGGGTEVVVK
# notes: An HRP-labelled form served as detection antibody in the sandwich ELISA; also called HPV16.001; 单克隆抗体HPV 16 R001
# Columns and labels:
# Assay in all cases: double-antibody sandwich ELISA, R001 as capture and HRP-R001 as detection, mixture of HPV types
# HPV39 VLP = biological target: T1, HPV39 VLP (Human papillomavirus type 39, UniProt P24838 1-505)
# T1 construct: also called HPV39完整VLP蛋白
# T1 sequence: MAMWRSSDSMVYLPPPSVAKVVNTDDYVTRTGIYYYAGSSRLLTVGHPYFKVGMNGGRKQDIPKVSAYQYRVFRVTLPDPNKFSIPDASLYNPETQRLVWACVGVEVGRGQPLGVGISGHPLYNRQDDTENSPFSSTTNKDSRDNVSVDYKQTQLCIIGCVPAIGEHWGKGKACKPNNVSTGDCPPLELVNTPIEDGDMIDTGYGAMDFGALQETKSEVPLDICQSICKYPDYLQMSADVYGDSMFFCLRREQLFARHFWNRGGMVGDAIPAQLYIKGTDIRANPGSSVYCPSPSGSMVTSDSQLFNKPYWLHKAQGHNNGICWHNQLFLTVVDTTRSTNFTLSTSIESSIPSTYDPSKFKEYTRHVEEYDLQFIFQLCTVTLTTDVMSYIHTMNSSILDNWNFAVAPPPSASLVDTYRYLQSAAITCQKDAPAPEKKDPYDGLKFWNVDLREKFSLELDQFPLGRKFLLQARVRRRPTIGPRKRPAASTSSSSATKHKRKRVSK
# HPV33 VLP = biological target: T2, HPV33 VLP (Human papillomavirus type 33, UniProt P06416 1-499)
# T2 construct: also called HPV33完整VLP蛋白
# T2 sequence: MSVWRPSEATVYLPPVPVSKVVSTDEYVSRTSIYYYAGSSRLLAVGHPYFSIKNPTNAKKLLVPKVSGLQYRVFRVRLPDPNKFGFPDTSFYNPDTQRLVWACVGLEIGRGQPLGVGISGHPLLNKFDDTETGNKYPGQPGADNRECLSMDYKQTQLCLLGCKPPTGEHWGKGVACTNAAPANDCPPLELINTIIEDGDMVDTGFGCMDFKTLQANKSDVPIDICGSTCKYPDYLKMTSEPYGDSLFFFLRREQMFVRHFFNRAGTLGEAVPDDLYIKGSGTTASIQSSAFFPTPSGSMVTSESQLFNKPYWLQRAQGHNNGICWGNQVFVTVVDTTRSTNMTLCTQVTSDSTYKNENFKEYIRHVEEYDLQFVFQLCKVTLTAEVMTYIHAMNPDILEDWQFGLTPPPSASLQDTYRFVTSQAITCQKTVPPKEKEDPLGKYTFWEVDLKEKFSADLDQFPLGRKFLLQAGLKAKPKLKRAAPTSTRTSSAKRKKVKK
# HPV31 VLP = biological target: T3, HPV31 VLP (Human papillomavirus type 31, UniProt P17388 1-504)
# T3 construct: also called HPV31完整VLP蛋白
# T3 sequence: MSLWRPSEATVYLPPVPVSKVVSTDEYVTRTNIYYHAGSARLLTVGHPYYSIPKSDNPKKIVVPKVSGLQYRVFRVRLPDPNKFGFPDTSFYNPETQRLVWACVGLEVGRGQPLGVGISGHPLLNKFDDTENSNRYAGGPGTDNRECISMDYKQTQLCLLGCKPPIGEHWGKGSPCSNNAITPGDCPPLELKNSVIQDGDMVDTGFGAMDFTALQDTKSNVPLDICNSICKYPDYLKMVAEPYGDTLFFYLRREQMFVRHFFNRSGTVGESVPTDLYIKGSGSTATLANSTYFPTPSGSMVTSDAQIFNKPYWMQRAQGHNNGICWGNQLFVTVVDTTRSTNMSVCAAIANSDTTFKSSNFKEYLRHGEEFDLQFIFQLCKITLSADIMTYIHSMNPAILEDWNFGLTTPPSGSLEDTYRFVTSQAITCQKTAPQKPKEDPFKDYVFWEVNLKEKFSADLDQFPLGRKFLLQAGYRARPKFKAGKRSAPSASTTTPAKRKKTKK
# HPV45 VLP = biological target: T4, HPV45 VLP (Human papillomavirus type 45, UniProt P36741 27-539)
# T4 construct: also called HPV45完整VLP蛋白
# T4 sequence: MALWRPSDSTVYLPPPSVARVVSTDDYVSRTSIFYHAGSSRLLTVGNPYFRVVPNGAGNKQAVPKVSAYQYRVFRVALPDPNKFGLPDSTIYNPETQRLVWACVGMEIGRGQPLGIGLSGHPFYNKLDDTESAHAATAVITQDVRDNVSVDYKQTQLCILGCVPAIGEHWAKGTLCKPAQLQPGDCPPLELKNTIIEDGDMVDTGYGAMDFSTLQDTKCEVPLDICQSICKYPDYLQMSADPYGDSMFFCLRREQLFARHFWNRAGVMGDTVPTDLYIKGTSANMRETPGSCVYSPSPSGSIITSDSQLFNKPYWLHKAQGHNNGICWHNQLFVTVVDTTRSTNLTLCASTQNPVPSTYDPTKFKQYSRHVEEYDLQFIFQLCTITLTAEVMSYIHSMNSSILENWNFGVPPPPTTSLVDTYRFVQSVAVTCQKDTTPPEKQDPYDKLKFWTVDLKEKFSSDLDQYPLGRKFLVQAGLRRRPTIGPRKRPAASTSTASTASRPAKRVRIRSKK
# HPV51 VLP = biological target: T5, HPV51 VLP (Human papillomavirus type 51, UniProt P26536 1-504)
# T5 construct: also called HPV51完整VLP蛋白
# T5 sequence: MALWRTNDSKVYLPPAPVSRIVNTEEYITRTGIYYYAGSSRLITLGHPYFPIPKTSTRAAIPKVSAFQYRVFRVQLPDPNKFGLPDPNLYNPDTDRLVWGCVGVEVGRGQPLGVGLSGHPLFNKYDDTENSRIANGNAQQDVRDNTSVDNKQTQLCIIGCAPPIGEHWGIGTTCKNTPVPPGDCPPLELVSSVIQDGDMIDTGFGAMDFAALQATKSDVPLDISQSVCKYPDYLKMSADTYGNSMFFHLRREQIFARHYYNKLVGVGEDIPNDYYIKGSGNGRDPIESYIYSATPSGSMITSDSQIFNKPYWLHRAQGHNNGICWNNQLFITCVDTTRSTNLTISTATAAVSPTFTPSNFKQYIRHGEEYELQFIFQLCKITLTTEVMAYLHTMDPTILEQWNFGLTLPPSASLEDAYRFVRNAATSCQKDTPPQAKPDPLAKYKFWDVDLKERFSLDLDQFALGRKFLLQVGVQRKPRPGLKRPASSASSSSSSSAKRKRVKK
binder,measurement,setting,value
B1,binding result,HPV39 VLP,no binding (tested: 50ng/mL，25ng/mL，12.5ng/mL)
same,binding result,HPV33 VLP,no binding (tested: 50ng/mL，25ng/mL，12.5ng/mL)
same,binding result,HPV31 VLP,no binding (tested: 50ng/mL，25ng/mL，12.5ng/mL)
same,binding result,HPV45 VLP,no binding (tested: 50ng/mL，25ng/mL，12.5ng/mL)
same,binding result,HPV51 VLP,no binding (tested: 50ng/mL，25ng/mL，12.5ng/mL)
